Results on two molecules are retold here after patent publication US11786477B2, “Fibrin particles and methods of making the same” (NORTH CAROLINA STATE UNIVERSITY, priority 2017, dated 2023).

The test system of assay [1] is Human dermal fibroblasts. Kind of assay: In vitro 3D collagen gel wound model, cell migration into biopsied wound. It is filed as cell-based. Conditions: 3D collagen gels, 20 μl sample into biopsied region, compared with saline and free KGF controls. How it is done:
Human dermal fibroblasts (500,000 cells/ml) were embedded in 3D collagen gels (3 mg/ml) in serum-free culture media. Using biopsy punches, “wounds” 2 mm in diameter were created with approximately 0.5-1 mm depth. The biopsied 3D wounds were filled with fibrin nanoparticles (FBN), FBN with attached Keratinocyte Growth Factor (FBN-KGF) or saline (controls). The number of cells migrating into the hole from the surrounding 3D collagen gel was counted every 18-24 hours. Data from each sample was normalized to its biopsy area (in mm^2). The cell migration rate was measured by counting cell numbers within the normalized biopsy area (# cells/unit area) on each day. Each treatment was compared with saline and KGF only controls. […] Bulk fibrin sealants require high concentrations of fibrinogen and thrombin in order to induce fast polymerization at the surgical/wound site; by delivering prepolymerized FBNs we are able to circumvent this issue and without inhibiting migration.

Assay [2] concerns epithelial dorsal dermal wounds. The experiment in a line: In vivo dermal wound healing in mice. The settings on record: C57BF/6 mice; for 3-day average dermal area closure: 4 mm biopsy punch wounds, first 3 days; for slope of linear fit of average % normalized wound area: assuming linear healing rate of the first 3 days. How it is done: In vivo validation that fibrin nanoparticles can assist wound healing was performed in mice. Dermal wounds were created and the rate of healing measured over several days. Two epithelial dorsal dermal wounds were created in10-week-old healthy male […]/6 mice (Charles River Faboratories Wilmington, Mass.) using a 4 mm diameter biopsy punch. The skin was excised and the inner […] was removed using surgical tools. Wound healing due to skin refolding was prevented by stitching the surrounding skin to a sterilized silicone ring. The annular silicone ring was laser cut from a silicone sheet acquired from Grace Bio-Fabs, Bend, Oreg., to a required inner diameter of 4.9 mm. The silicone ring was held in position with stationary glue and stitches. […] Each wound was immediately imaged using a handheld Nikon camera and separately treated with control 0.9% saline, bulk fibrin gel (400 (μg), FBN (20 (μg), or FBN-KGF (20 μg at the highest concentration). After treatment, the wound was covered with translucent moisture responsive catheter dressing (IV3000, Smith & Nephew, Andover, Mass.) attached over the silicone ring. The porous sheet was also laser cut to the required dimensions to aid the surgeon and to match the wound area. The wound area was imaged using a handheld Nikon camera every 24 hours after removing the translucent dressing. Image analysis of the wound was performed in ImageJ and the scale was measured using the known inner diameter of the silicone ring. The % change in wound area on each day was compared its wound area in day 0 (day of biopsy). The rate of wound healing was quantified by plotting averaged % normalized wound area for each wound treatment. The slope of a linear fit of the average % normalized wound area for the first 3 days post biopsy was calculated in Prism and 2-way Anova statistics were performed to compare the slopes of each treatment (FIG. 9).

B1: FBN-KGF: Keratinocyte growth factor covalently coupled to FBN using carbodiimide and N-hydroxysulfosuccinimide (conjugate, UniProt P21781 32-194, looked up)
Fibroblast growth factor 7: CNDMTPEQMATNVNCSSPERHTRSYDYMEGGDIRVRRLFCRTQWYLRIDKRGKVKGTQEMKNNYNIMEIRTVAVGIVAIKGVESEFYLAMNKEGKLYAKKECNEDCNFKELILENHYNTYASAKWTHNGGEMFVALNQKGIPVRGKKTKKEQKTAHFLPMAIT
modifications: coupled to FBN nanoparticles
notes: Keratinocyte growth factor covalently coupled to FBN using carbodiimide and N-hydroxysulfosuccinimide
On to B1, for which the “cell recruitment / cell migration into 3D wound” value in assay [1] is “significantly enhanced cell recruitment and or cell proliferation”. In addition, in assay [2], the “3-day average dermal area closure” value was 48±9% and the “slope of linear fit of average % normalized wound area” value was −16±3.

B2: free KGF: Keratinocyte growth factor (CYT-219, Prospec Protein Specialist) (protein, UniProt P21781 32-194, looked up)
Fibroblast growth factor 7: CNDMTPEQMATNVNCSSPERHTRSYDYMEGGDIRVRRLFCRTQWYLRIDKRGKVKGTQEMKNNYNIMEIRTVAVGIVAIKGVESEFYLAMNKEGKLYAKKECNEDCNFKELILENHYNTYASAKWTHNGGEMFVALNQKGIPVRGKKTKKEQKTAHFLPMAIT
On to B2, for which, in assay [2], the “3-day average dermal area closure” value was determined as 42±12% and the “slope of linear fit of average % normalized wound area” value is recorded as −14±2.
